Key:
[1] = molecular target: the molecule itself; test: cryo-EM structure; wild-type LONP1 2.5 mg/ml in 50 mM Tris pH 8, 75 mM KCl, 10 mM MgCl2, 1 mM TCEP, 1 mM ATPγS; substrate-free (~3.4 Å) and substrate-bound (~3.2 Å) conformations from one sample; LONP1 with itself
[2] = molecular target: the molecule itself; test: cryo-EM structure; Walker B (E591A) LONP1 2.5 mg/ml in 50 mM Tris pH 8, 75 mM KCl, 10 mM MgCl2, 1 mM TCEP, 1 mM ATP; ~4.8 Å; LONP1 with itself
[3] = molecular target: the molecule itself; test: cryo-EM structure; LONP1 2.5 mg/ml in 50 mM Tris pH 8, 75 mM KCl, 10 mM MgCl2, 1 mM TCEP, 1 mM ATPγS with 10-fold molar excess bortezomib; ~3.2 Å; LONP1 with itself

B1: human LONP1 (mature, lacking its N-terminal mitochondrial targeting sequence), wild type (enzyme, UniProt P36776 115-959, looked up)
chain: MTIPDVFPHLPLIAITRNPVFPRFIKIIEVKNKKLVELLRRKVRLAQPYVGVFLKRDDSNESDVVESLDEIYHTGTFAQIHEMQDLGDKLRMIVMGHRRVHISRQLEVEPEEPEAENKHKPRRKSKRGKKEAEDELSARHPAELAMEPTPELPAEVLMVEVENVVHEDFQVTEEVKALTAEIVKTIRDIIALNPLYRESVLQMMQAGQRVVDNPIYLSDMGAALTGAESHELQDVLEETNIPKRLYKALSLLKKEFELSKLQQRLGREVEEKIKQTHRKYLLQEQLKIIKKELGLEKDDKDAIEEKFRERLKELVVPKHVMDVVDEELSKLGLLDNHSSEFNVTRNYLDWLTSIPWGKYSNENLDLARAQAVLEEDHYGMEDVKKRILEFIAVSQLRGSTQGKILCFYGPPGVGKTSIARSIARALNREYFRFSVGGMTDVAEIKGHRRTYVGAMPGKIIQCLKKTKTENPLILIDEVDKIGRGYQGDPSSALLELLDPEQNANFLDHYLDVPVDLSKVLFICTANVTDTIPEPLRDRMEMINVSGYVAQEKLAIAERYLVPQARALCGLDESKAKLSSDVLTLLIKQYCRESGVRNLQKQVEKVLRKSAYKIVSGEAESVEVTPENLQDFVGKPVFTVERMYDVTPPGVVMGLAWTAMGGSTLFVETSLRRPQDKDAKGDKDGSLEVTGQLGEVMKESARIAYTFARAFLMQHAPANDYLVTSHIHLHVPEGATPKDGPSAGCTIVTALLSLAMGRPVRQNLAMTGEVSLTGKILPVGGIKEKTIAAKRAGVTCIVLPAENKKDFYDLAAFITEGLEVHFVEHYREIFDIAFPDEQAEALAVER
notes: human LONP1, mature mitochondrial-matrix form with methionine 115 as its first residue; residues ~420-947 resolved in the cryo-EM maps; pET20b-His6-LONP1; no removal of the His6 tag is described; Incubated with ATPγS for cryo-EM; also called His6-LONP1; WT LONP1; source: E. coli Rosetta 2(DE3)pLysS, purified (TALON cobalt resin, Superose 6 size exclusion)
stoichiometry N [1]: 6

B2: Walker B LONP1 mutant (E591A) (enzyme, human, UniProt P36776 115-959, looked up)
chain: MTIPDVFPHLPLIAITRNPVFPRFIKIIEVKNKKLVELLRRKVRLAQPYVGVFLKRDDSNESDVVESLDEIYHTGTFAQIHEMQDLGDKLRMIVMGHRRVHISRQLEVEPEEPEAENKHKPRRKSKRGKKEAEDELSARHPAELAMEPTPELPAEVLMVEVENVVHEDFQVTEEVKALTAEIVKTIRDIIALNPLYRESVLQMMQAGQRVVDNPIYLSDMGAALTGAESHELQDVLEETNIPKRLYKALSLLKKEFELSKLQQRLGREVEEKIKQTHRKYLLQEQLKIIKKELGLEKDDKDAIEEKFRERLKELVVPKHVMDVVDEELSKLGLLDNHSSEFNVTRNYLDWLTSIPWGKYSNENLDLARAQAVLEEDHYGMEDVKKRILEFIAVSQLRGSTQGKILCFYGPPGVGKTSIARSIARALNREYFRFSVGGMTDVAEIKGHRRTYVGAMPGKIIQCLKKTKTENPLILIDAVDKIGRGYQGDPSSALLELLDPEQNANFLDHYLDVPVDLSKVLFICTANVTDTIPEPLRDRMEMINVSGYVAQEKLAIAERYLVPQARALCGLDESKAKLSSDVLTLLIKQYCRESGVRNLQKQVEKVLRKSAYKIVSGEAESVEVTPENLQDFVGKPVFTVERMYDVTPPGVVMGLAWTAMGGSTLFVETSLRRPQDKDAKGDKDGSLEVTGQLGEVMKESARIAYTFARAFLMQHAPANDYLVTSHIHLHVPEGATPKDGPSAGCTIVTALLSLAMGRPVRQNLAMTGEVSLTGKILPVGGIKEKTIAAKRAGVTCIVLPAENKKDFYDLAAFITEGLEVHFVEHYREIFDIAFPDEQAEALAVER
notes: human LONP1, mature form with methionine 115 as its first residue, with the Walker B mutation E591 to A591; Made by QuikChange from pET20b-His6-LONP1, expressed and purified as the wild type; Structure determined with ATP; also called WalkerB mutant LONP1; source: E. coli Rosetta 2(DE3)pLysS, purified (TALON cobalt resin, Superose 6 size exclusion)
binding result [2]: binds

B3: LONP1^Bz: human LONP1 with bortezomib covalently attached to the catalytic serine (enzyme, UniProt P36776 115-959, looked up)
chain: MTIPDVFPHLPLIAITRNPVFPRFIKIIEVKNKKLVELLRRKVRLAQPYVGVFLKRDDSNESDVVESLDEIYHTGTFAQIHEMQDLGDKLRMIVMGHRRVHISRQLEVEPEEPEAENKHKPRRKSKRGKKEAEDELSARHPAELAMEPTPELPAEVLMVEVENVVHEDFQVTEEVKALTAEIVKTIRDIIALNPLYRESVLQMMQAGQRVVDNPIYLSDMGAALTGAESHELQDVLEETNIPKRLYKALSLLKKEFELSKLQQRLGREVEEKIKQTHRKYLLQEQLKIIKKELGLEKDDKDAIEEKFRERLKELVVPKHVMDVVDEELSKLGLLDNHSSEFNVTRNYLDWLTSIPWGKYSNENLDLARAQAVLEEDHYGMEDVKKRILEFIAVSQLRGSTQGKILCFYGPPGVGKTSIARSIARALNREYFRFSVGGMTDVAEIKGHRRTYVGAMPGKIIQCLKKTKTENPLILIDEVDKIGRGYQGDPSSALLELLDPEQNANFLDHYLDVPVDLSKVLFICTANVTDTIPEPLRDRMEMINVSGYVAQEKLAIAERYLVPQARALCGLDESKAKLSSDVLTLLIKQYCRESGVRNLQKQVEKVLRKSAYKIVSGEAESVEVTPENLQDFVGKPVFTVERMYDVTPPGVVMGLAWTAMGGSTLFVETSLRRPQDKDAKGDKDGSLEVTGQLGEVMKESARIAYTFARAFLMQHAPANDYLVTSHIHLHVPEGATPKDGPSAGCTIVTALLSLAMGRPVRQNLAMTGEVSLTGKILPVGGIKEKTIAAKRAGVTCIVLPAENKKDFYDLAAFITEGLEVHFVEHYREIFDIAFPDEQAEALAVER
modifications: bortezomib covalently attached to S855
notes: human LONP1, mature form with methionine 115 as its first residue; with ATPγS
stoichiometry N [3]: 6
